{"source": "patent US20040248240A1", "molecules": {"B1": {"name": "human voltage-gated sodium channel β3 sub-unit (protein)", "chain": "FPVCVEVPSETEAVQGNPMKLRCISCMKREEVEATTVVEWFYRPEGGKDFLIYEYRNGHQEVESPFQGRLQWNGSKDLQDVSITVLNVTLNDSGLYTCNVSREFEFEAHRPFVKTTRLIPLRVTEEAGEDFTSVVSEIMMYILLVFLTLWLLIEMIYCYRKVSKAEEAAQENASDYLAIPSENKENSAVPVEE"}, "B2": {"name": "rat voltage-gated sodium channel β3 sub-unit (protein)", "chain": "VCVEVPSETEAVQGNPMKLRCISCMKREEVEATTVVEWFYRPEGGKDFLIYEYRNGHQEVESPFQGRLQWNGSKDLQDVSITVLNVTLNDSGLYTCNVSREFEFEAHRPFVKTTRLIPLRVTEEAGEDFTSVVSEIMMYILLVFLTLWLFIEMIYCYRKVSKAEEAAQENASDYLAIPSENKENSVVPVEE"}}, "test_in_all_cases": "cell-based or functional assay", "key": {"[1]": {"biological_target": "rat brain type IIA α sub-unit of the voltage-gated sodium channel (rat) (UniProt P04775)", "sequence (P04775 whole entry)": "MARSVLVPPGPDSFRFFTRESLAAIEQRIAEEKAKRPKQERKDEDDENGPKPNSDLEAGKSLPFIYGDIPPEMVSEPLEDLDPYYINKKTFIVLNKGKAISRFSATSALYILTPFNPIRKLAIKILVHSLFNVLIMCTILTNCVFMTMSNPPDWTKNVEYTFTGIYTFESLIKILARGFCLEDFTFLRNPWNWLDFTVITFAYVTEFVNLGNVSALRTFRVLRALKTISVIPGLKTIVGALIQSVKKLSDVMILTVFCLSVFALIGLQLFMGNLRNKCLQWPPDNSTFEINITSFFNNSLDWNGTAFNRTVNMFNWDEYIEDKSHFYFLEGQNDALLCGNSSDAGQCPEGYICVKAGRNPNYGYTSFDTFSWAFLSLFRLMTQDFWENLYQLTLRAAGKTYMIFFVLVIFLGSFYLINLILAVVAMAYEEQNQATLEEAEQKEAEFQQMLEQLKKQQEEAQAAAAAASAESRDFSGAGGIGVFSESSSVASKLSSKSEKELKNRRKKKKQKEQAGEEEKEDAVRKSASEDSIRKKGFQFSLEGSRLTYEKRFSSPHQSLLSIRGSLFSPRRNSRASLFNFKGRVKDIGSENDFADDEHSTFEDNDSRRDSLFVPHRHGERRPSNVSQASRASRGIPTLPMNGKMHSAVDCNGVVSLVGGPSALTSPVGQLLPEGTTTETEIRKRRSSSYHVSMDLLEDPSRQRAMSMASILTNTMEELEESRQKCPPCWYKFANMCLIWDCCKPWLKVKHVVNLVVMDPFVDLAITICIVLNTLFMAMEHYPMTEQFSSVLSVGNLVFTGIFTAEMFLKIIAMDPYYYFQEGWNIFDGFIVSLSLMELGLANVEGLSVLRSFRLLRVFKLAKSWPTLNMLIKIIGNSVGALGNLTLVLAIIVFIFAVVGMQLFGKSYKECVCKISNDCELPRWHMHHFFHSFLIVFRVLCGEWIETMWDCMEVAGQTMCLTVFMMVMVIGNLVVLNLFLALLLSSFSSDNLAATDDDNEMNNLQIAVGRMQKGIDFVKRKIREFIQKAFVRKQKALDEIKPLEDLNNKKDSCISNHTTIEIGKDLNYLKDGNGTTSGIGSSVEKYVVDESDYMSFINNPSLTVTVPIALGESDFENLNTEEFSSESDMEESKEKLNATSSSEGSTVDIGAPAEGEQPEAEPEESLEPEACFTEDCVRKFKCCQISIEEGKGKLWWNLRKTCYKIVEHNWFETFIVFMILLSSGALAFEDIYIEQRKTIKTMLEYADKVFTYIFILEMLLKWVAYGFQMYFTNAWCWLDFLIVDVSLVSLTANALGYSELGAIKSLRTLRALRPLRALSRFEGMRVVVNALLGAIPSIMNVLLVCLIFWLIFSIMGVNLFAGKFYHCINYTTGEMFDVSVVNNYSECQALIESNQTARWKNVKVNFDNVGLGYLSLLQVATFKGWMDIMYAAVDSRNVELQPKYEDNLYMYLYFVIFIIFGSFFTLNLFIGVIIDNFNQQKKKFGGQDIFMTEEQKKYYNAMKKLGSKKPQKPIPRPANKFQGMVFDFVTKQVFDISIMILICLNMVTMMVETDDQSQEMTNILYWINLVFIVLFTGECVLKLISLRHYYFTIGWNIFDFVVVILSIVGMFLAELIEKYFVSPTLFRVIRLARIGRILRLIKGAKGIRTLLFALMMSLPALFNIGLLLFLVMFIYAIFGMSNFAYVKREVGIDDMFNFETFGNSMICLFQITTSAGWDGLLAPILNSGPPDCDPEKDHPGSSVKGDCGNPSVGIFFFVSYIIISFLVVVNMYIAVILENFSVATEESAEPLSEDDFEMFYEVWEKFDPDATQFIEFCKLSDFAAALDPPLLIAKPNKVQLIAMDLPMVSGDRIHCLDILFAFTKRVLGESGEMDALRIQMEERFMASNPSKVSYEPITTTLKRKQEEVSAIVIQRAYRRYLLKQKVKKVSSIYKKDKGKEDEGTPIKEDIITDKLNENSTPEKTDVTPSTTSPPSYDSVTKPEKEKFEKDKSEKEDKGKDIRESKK"}, "[2]": {"biological_target": "rat brain type IIA α sub-unit of the voltage-gated sodium channel (rat) (UniProt P04775)", "remark": "listed apart in the source"}, "[3]": {"biological_target": "rat brain type IIA α sub-unit of the voltage-gated sodium channel (rat) (UniProt P04775)", "remark": "listed apart in the source"}}, "note": "Like-named read-outs stand apart in the source and are kept apart here."}
{"molecule": "rat voltage-gated sodium channel β1 sub-unit (from UniProt Q00954 19-218)", "values": [{"measurement": "Inactivation timecourse, Percentage in fast mode", "setting": "[1]", "result": 95, "unit": "%"}, {"measurement": "Inactivation timecourse, time constant 1", "setting": "[1]", "result": 1.4, "unit": "ms"}, {"measurement": "Inactivation timecourse, time constant 2", "setting": "[1]", "result": 24.7, "unit": "ms"}, {"measurement": "Recovery from inactivation, Percentage in fast mode", "setting": "[1]", "result": 84, "unit": "%"}, {"measurement": "Recovery from inactivation, time constant 1", "setting": "[1]", "result": 2, "unit": "ms"}, {"measurement": "Recovery from inactivation, time constant 2", "setting": "[1]", "result": 148, "unit": "ms"}, {"measurement": "Voltage-dependence of inactivation, V½ (mV)", "setting": "[1]", "result": -49.1, "unit": "mV"}, {"measurement": "Voltage-dependence of inactivation, k (mV)", "setting": "[1]", "result": 5.9, "unit": "mV"}, {"measurement": "inactivation time constant 1 at -10 mV (two-electrode voltage clamp, oocytes)", "setting": "[1]", "result": 1.3, "unit": "ms"}, {"measurement": "inactivation time constant 2 at -10 mV (two-electrode voltage clamp, oocytes)", "setting": "[1]", "result": 22.7, "unit": "ms"}]}
{"molecule": "B1", "values": [{"measurement": "inactivation time constant 1", "setting": "[2]", "result": 1, "unit": "ms"}, {"measurement": "inactivation time constant 2", "setting": "[2]", "result": 9.1, "unit": "ms"}]}
{"molecule": "B2", "values": [{"measurement": "Recovery from inactivation, time constant 1", "setting": "[3]", "result": 1.9, "unit": "ms"}, {"measurement": "Recovery from inactivation, time constant 2", "setting": "[3]", "result": 198, "unit": "ms"}, {"measurement": "Inactivation timecourse, Percentage in fast mode", "setting": "[2]", "result": 85, "unit": "%"}, {"measurement": "Inactivation timecourse, time constant 1", "setting": "[2]", "result": 1.5, "unit": "ms"}, {"measurement": "Inactivation timecourse, time constant 2", "setting": "[2]", "result": 24.7, "unit": "ms"}, {"measurement": "Recovery from inactivation, Percentage in fast mode", "setting": "[2]", "result": 73, "unit": "%"}, {"measurement": "Recovery from inactivation, time constant 1", "setting": "[2]", "result": 4.1, "unit": "ms"}, {"measurement": "Recovery from inactivation, time constant 2", "setting": "[2]", "result": 170, "unit": "ms"}, {"measurement": "Voltage-dependence of inactivation, V½ (mV)", "setting": "[2]", "result": -49.3, "unit": "mV"}, {"measurement": "Voltage-dependence of inactivation, k (mV)", "setting": "[2]", "result": 6.1, "unit": "mV"}, {"measurement": "inactivation time constant 1 at -10 mV (two-electrode voltage clamp, oocytes)", "setting": "[2]", "result": 1, "unit": "ms"}, {"measurement": "inactivation time constant 2 at -10 mV (two-electrode voltage clamp, oocytes)", "setting": "[2]", "result": 23.8, "unit": "ms"}, {"measurement": "steady-state inactivation, V1/2 (midpoint)", "setting": "[2]", "result": -49.4, "unit": "mV"}]}
